The source of these data is patent publication US12331324B2, “Versatile peroxidases and uses thereof” (Yeda Research and Development Co. Ltd., priority 2021, dated 2025).

Substrate in data set [1]: CCn1c(=NN=c2sc3cc(S(=O)(=O)O)ccc3n2CC)sc2cc(S(=O)(=O)O)ccc21
In words: Steady-state kinetics (Michaelis-Menten) of purified VP design 11H with peroxidase substrates. Particulars: optimum pH, 25° C., 0.1 mM H2O2. The data set is classed as biochemical, Pleurotus ostreatus. As for the experimental part: (§1) VPs production and purification. A colony from S. cerevisiae clone containing the VP gene (5H, 8H, 11H, VPL_R4, VPL_2-1B) was picked from an SC drop-out plate, inoculated in 25 mL minimal medium in a 250 flask, and incubated for 48 hours at 30° C. and 225 rpm. An aliquot of cells was removed and used to inoculate 100 mL of minimal medium in a 1 L flask to an OD600 nm of 0.25-0.30, under the same conditions. The cells completed two growth phases (8-10 hours, reaching OD600 nm˜1-1.5), then the expression medium (450 mL) was inoculated with 50 mL of the pre-culture in a 2 L flask (OD600 nm˜0.1). Cells were incubated for a further ˜60 hours at 30° C. and 225 rpm. Thereafter, cells were centrifuged at 6000 g for 15 min at 4° C., and the supernatant was collected and filtered with a 0.2 μm filter bottle.
(§2) Filtrates were subjected to fractional precipitation with ammonium sulfate in two steps: first cut of 50%, followed by centrifugation and elimination of the precipitates, and the second cut of 70%. Buffer A was used to dissolve the pellet, and the dissolved protein solution was shaken overnight at 4° C. for maximal recovery. The dissolved fraction was then centrifuged, filtrated, concentrated, and subjected to overnight dialysis against buffer A. Filtered fractions of the VP proteins after dialysis were uploaded into a HiTrap™ Q HP Column (GE Healthcare Bio-Sciences AB, Uppsala, Sweden) pre-equilibrated with buffer A, through ÄKTA pure protein purification system (GE Healthcare Bio-Sciences AB). Proteins were eluted in a two-step linear gradient from 0 to 1 M NaCl, at a flow rate of 1 ml/min: the first phase of 0-25% over 15 column volumes (75 min) and second phase of 25-100% over 2 column volumes (10 min). The fractions of the peak with the highest VP activity (and absorption at 407 nm) were pooled, concentrated, and dialyzed against 20 mM piperazine buffer pH=5.5 and 150 mM NaCl (buffer B). Protein fractions were then uploaded onto a Superdex 75 Increase 10/300 GL (GE Healthcare Bio-Sciences AB) through the ÄKTA pure system pre-equilibrated with buffer B. The fractions of the peak with the highest VP activity (and absorption at 407 nm) were pooled and dialyzed against buffer A. Pure protein samples were stored at 4° C. Protein concentration was determined using the BCA assay with bovine serum albumin as a standard. The obtained Reinheitszahl values (Rz: Abs407 nm/Abs280 nm), which indicate for the purity of peroxidases, were 1 for 8H (due to high tryptophan content) and above 2 for 5H, 11H, R4 and 2-1B.
(§3) pH activity profiles. For purified 5H, 8H, 11H, and R4, 20 μL protein samples (diluted in buffer A) were transferred into activity 96 plates (in the case of VA and MnSO4, UV-Star plates; Greiner Bio-One GmbH, Kremsmünster, Austria) and then, 180 μL of the reaction mixture were added to each row in the plate, and absorption at the appropriate wavelength (substrate-dependent) was recorded immediately in a kinetic mode in a plate-reader at 25° C. The reaction mixtures contained a specific substrate in 100 mM citrate-phosphate-borate buffer (pH 2, 3, 3.5, 4, 5, 6, 7, 8) and 0.1 mM H2O2. The activities were recorded in triplicate. The following substrate concentrations and absorption wavelengths were used: ABTS: 2 mM, 418 nm; DMP: 5 mM, 469 nm; RB5: 0.05 mM, 598 nm; VA: 30 mM, 310 nm. For manganese, the reaction mixtures contained 60 mM MnSO4 in 100 mM sodium tartrate buffer (pH 3, 3.5, 4, 4.5, 5) and 0.1 mM H2O2, and the Mn^3+-tartrate complex absorption was read at 238 nm. For each protein and substrate, the activities were normalized to the activity at optimal pH for residual activity calculations. Each activity assay was conducted in triplicate.
(§4) Kinetic parameters. Steady-state kinetics were determined for 5H, 8H, 11H and R4, by measuring the activity (initial rates) in increasing concentrations of the substrate, and the KM and Kcat values were calculated by fitting the results to the Michaelis-Menten model (V0=KcatES/(KM+S)). […]

Substrate in data set [2]: Nc1c(N=Nc2ccc(S(=O)(=O)CCOS(=O)(=O)O)cc2)c(S(=O)(=O)O)cc2cc(S(=O)(=O)O)c(N=Nc3ccc(S(=O)(=O)CCOS(=O)(=O)O)cc3)c(O)c12
The data set is described as above. The data set is classed as biochemical, Pleurotus ostreatus. The settings on record: other: VA, RB5, optimum pH, 25° C., 0.1 mM H2O2. On the procedure: as §1, §2, §3, §4

Substrate in data set [3]: COc1cccc(OC)c1O
Described as above. The data set is classed as biochemical, Pleurotus ostreatus. The settings on record: optimum pH, 25° C., 0.1 mM H2O2. As for the experimental part:
as §1, §2, §3, §4

Substrate in data set [4]: OO
The description is as above. The data set is classed as biochemical, Pleurotus ostreatus. The settings on record: other: H2O2 kinetics with 2 mM ABTS, optimum pH for ABTS, 25° C. On the procedure:
as §1, §2, §3, §4

Substrate in data set [5]: COc1ccc(CO)cc1OC
The description is as above. The data set is classed as biochemical, Pleurotus ostreatus. Particulars: other: VA, RB5, optimum pH, 25° C., 0.1 mM H2O2. On the procedure:
as §1, §2, §3, §4

Substrate in data set [6]: CCn1c(=NN=c2sc3cc(S(=O)(=O)O)ccc3n2CC)sc2cc(S(=O)(=O)O)ccc21
In words: purified protein, by the assay type. The settings on record: optimum pH, 25° C., 0.4 mM H2O2.

Substrate in data set [7]: Nc1c(N=Nc2ccc(S(=O)(=O)CCOS(=O)(=O)O)cc2)c(S(=O)(=O)O)cc2cc(S(=O)(=O)O)c(N=Nc3ccc(S(=O)(=O)CCOS(=O)(=O)O)cc3)c(O)c12
In words: purified protein, by the assay type. The settings on record: other: VA, RB5, optimum pH, 25° C., 0.4 mM H2O2.

Substrate in data set [8]: COc1cccc(OC)c1O
In words: purified protein, by the assay type. Particulars: optimum pH, 25° C., 0.4 mM H2O2.

Substrate in data set [9]: OO
The data set can be described thus: purified protein, by the assay type. Particulars: other: H2O2 kinetics with 2 mM ABTS, optimum pH for ABTS, 25° C.

Substrate in data set [10]: COc1ccc(CO)cc1OC
The data set can be described thus: purified protein, by the assay type. The settings on record: other: VA, RB5, optimum pH, 25° C., 0.4 mM H2O2.

B1: Pleurotus ostreatus versatile peroxidase VP11, designed variant 11H, SEQ ID NO: 3 (wild type SEQ ID NO: 6; mutations A11S, V15T, A17S, P26D, I27L, L28R, E29D, … (protein)
chain: VTLPQKRATCSGGQTTSNAACCVLFDLRDDLQKNLFDGGQCGEEVHESLRLTFHDAIGFSPTKGGGGADGSVLIFSDTELNFPANLGIDEIVEAQKPFLQRHNISAGDLVQFAGALGVSNCPGAPRIPFFLGRPPATAPSPDGLVPEPFDSVDDILARMADAGFSPVEVVWLLSSHTIAAADHVDPTIPGTPFDSTPSIFDSQFFIETQLRGTLFPGTGGNPGEVESPLPGEIRLQSDHLLARDPRTACEWQSMVDNMPKIQNRFAATMLKMSLLGQNVRDLIDCSDVIPTPPPLVGTAHLPAGKTQSDVEQACATTPFPTIPADPGPVTSVPPVPPS
B1: the Michaelis-Menten constant (Km) (in general, the substrate concentration at which the rate is half of its maximum) is 6.3 ± 0.7 µM in data set [1] (other: high efficiency site); 1,100 ± 90 μM in data set [1] (other: low efficiency site); 2.0 ± 0.2 µM in data set [2]; 168 ± 10 µM in data set [3] (other: high efficiency site); 11,400 ± 2,000 μM in data set [3] (other: low efficiency site); 38.9 ± 6.9 µM in [4]. Further, the Michaelis-Menten constant (Km) in data set [5] is 2,000 ± 100 μM. For the same protein, the kcat (as a rule, the maximal rate divided by the concentration of active sites) in data set [1] (other: high efficiency site) is 2.0 ± 0.1 s⁻¹; in data set [1] (other: low efficiency site) it was 11.2 ± 0.3 s⁻¹; in [2], 0.3 ± 0.01 s⁻¹; in data set [3] (other: high efficiency site) it was 1.91 ± 0.04 s⁻¹; in data set [3] (other: low efficiency site) it was 6.3 ± 0.4 s⁻¹; in [4] it was 7 ± 0.5 s⁻¹. In addition, the kcat in data set [5] turned out to be 1.38 ± 0.03 s⁻¹. Besides, the specificity constant (kcat/Km) (as a rule, the turnover number divided by the Michaelis constant) in [1] (other: high efficiency site) turned out to be 314000 ± 37000 M⁻¹ s⁻¹; in data set [1] (other: low efficiency site) it was 10300 ± 900 M⁻¹ s⁻¹; in data set [2], 152000 ± 20000 M⁻¹ s⁻¹; in data set [3] (other: high efficiency site), 11400 ± 700 M⁻¹ s⁻¹; in [3] (other: low efficiency site) it was 550 ± 100 M⁻¹ s⁻¹; in [4] it was 180000 ± 35000 M⁻¹ s⁻¹. Besides, the specificity constant (kcat/Km) in data set [5] was found to be 680 ± 50 M⁻¹ s⁻¹.

B2: Pleurotus ostreatus versatile peroxidase VP5, designed variant 5H, SEQ ID NO: 1 (wild type SEQ ID NO: 4; mutations A11S, V15T, A17S, A19E, P26D, D38G, A40Q, … (protein)
chain: VSLPQKRATCSGGQTTSNEACCVLFDLMEDLQKNLFDGGQCGEQAHEALRLTFHDAIGFSPSRGVMGGADGSVITFSDIETNFPANLGIDDIVEAEKSFLQRHNISAGDLVHFAATLAVTNCPGAPRIPFFLGRPPATAPSPPGLVPEPFDSVTDILARMADAGFSPVEVVWLLSAHSVAAADHVDPTIPGTPFDSTPNLFDSQFFIETQLRGTTFPGTGGNPGEVKSPLPGEMRLQSDHLFARDPRTACEWQSMVNDQQKIQDRFRDTLFKMSMLGQNQDDMIDCSDVIPVPPPLTTKPHLPAGKSKTDVEQACATAPFPTLPADPGPPTSVPPVPPA
As for B2, the Km in data set [6] (other: high efficiency site) was 1.9 ± 0.4 µM; in data set [6] (other: low efficiency site), 765 ± 96 µM; in [7], 2.9 ± 1.0 µM; in [8] (other: high efficiency site), 85.7 ± 16.9 µM; in [8] (other: low efficiency site) it was 27,700 ± 7,100 μM; in [9] it was 197 ± 20 µM. The Km in data set [10] turned out to be 158 ± 27 µM. Besides, the kcat in [6] (other: high efficiency site) came to 1.5 ± 0.1 s⁻¹; in [6] (other: low efficiency site), 33.2 ± 1.8 s⁻¹; in data set [7], 0.18 ± 0.04 s⁻¹; in data set [8] (other: high efficiency site) it was 1.2 ± 0.1 s⁻¹; in data set [8] (other: low efficiency site), 5.4 ± 0.6 s⁻¹; in data set [9], 20.3 ± 0.8 s⁻¹. For the same protein, the kcat in data set [10] was 0.52 ± 0.02 s⁻¹. Moreover, the kcat/Km in data set [6] (other: high efficiency site) was determined as 763000 ± 151000 M⁻¹ s⁻¹; in data set [6] (other: low efficiency site), 43400 ± 5900 M⁻¹ s⁻¹; in [7], 62300 ± 25200 M⁻¹ s⁻¹; in data set [8] (other: high efficiency site), 14400 ± 3000 M⁻¹ s⁻¹; in [8] (other: low efficiency site), 190 ± 50 M⁻¹ s⁻¹; in data set [9], 103000 ± 11000 M⁻¹ s⁻¹. The kcat/Km in [10] came out at 3300 ± 600 M⁻¹ s⁻¹.
